Test [1] addresses T1, SF3B1 K700E peptide on HLA-B*40:01 (human).
T1 peptide: QEVRTISAL
The test is described as follows: peptide titration 51Cr-release assay; clone 24 against autologous LCL pulsed with varying peptide concentrations; T cell clone or line. The method, then:
(§1) LCL were pulsed with QEVRTISAL (SEQ ID NO: 1) peptide at 1000 ng/ml prior to co-culture (>5 biological replicates per HLA). […] The tested peptides include […] (SEQ ID NO: 50), […] (SEQ ID NO: 64), and […] (SEQ ID NO: 65). QEVRTISAL (SEQ ID NO: 1) peptide and the wild-type equivalent QKVRTISAL (SEQ ID NO: 2) were included as controls (3 technical replicate experiments). […] For all experiments, mean and standard error of the mean (SEM) are shown.
(§2) Cytotoxicity was measured in short-term (4-hour) assays using 51Cr-labeled target cells. Briefly, target cells were labeled with ⁵¹Cr overnight (cell lines) or for 6 hours (primary leukemia) at 37° C. and 5% CO₂. Effector cells were added to labeled target cells and incubated for 4 hours. After co-incubation, supernatant was harvested for γ-counting. Specific lysis was calculated using a standard formula. Targets used included autologous LCL with and without peptides in varying concentrations. All targets were washed to remove excess 51Cr and residual interferon-γ or peptide before co-culture initiation.

Test [2] concerns the target T2, SF3B1 K700E peptide on HLA-B*40:02 (human).
T2 peptide: QEVRTISAL
The test is described as follows: killing. The method, then:
as §1, §2

Test [3] deals with T3, mitochondrial trifunctional enzyme subunit alpha (HADHA) peptide on HLA-B*40:01 (human).
T3 peptide: PEERTIEYL
The test is described as follows: killing. The protocol:
as §1, §2

Test [4] has as its target T4, alkylglycerone-phosphate synthase (AGPS) peptide on HLA-B*40:01 (human).
T4 peptide: DETRTIISL
The test is described as follows: killing. The protocol:
as §1, §2

Test [5] concerns the target T5, SF3B1 K700E epitope with alanine at position 2 peptide on HLA-B*40:01 (human).
T5 peptide: QAVRTISAL
The test is described as follows: killing. The method, then:
as §1, §2

In test [6] the target is T6, SF3B1 K700E epitope with alanine at position 6 peptide on HLA-B*40:01 (human).
T6 peptide: QEVRTASAL
The test is described as follows: killing. The protocol: as §1, §2

Test [7] has as its target T7, SF3B1 K700E epitope with alanine at position 3 peptide on HLA-B*40:01 (human).
T7 peptide: QEARTISAL
The test is described as follows: killing. The protocol: as §1, §2

In test [8] the target is T8, SF3B1 K700E epitope with alanine at position 1 peptide on HLA-B*40:01 (human).
T8 peptide: AEVRTISAL
The test is described as follows: killing. The protocol:
as §1, §2

The target of test [9] is T9, SF3B1 K700E epitope with alanine at position 9 peptide on HLA-B*40:01 (human).
T9 peptide: QEVRTISAA
The test is described as follows: killing. The protocol: as §1, §2

The target in test [10] is T10, Gem-associated protein 5 (GEMIN5) peptide on HLA-B*40:01 (human).
T10 peptide: IEPRTIFCL
The test is described as follows: killing. The protocol: as §1, §2

Test [11] deals with T11, SF3B1 K700E epitope with alanine at position 5 peptide on HLA-B*40:01 (human).
T11 peptide: QEVRAISAL
The test is described as follows: killing. The protocol:
as §1, §2

The target of test [12] is T12, spermatogenesis-associated protein 1 (SPATA1) peptide on HLA-B*40:01 (human).
T12 peptide: VEDRTIRQL
The test is described as follows: killing. The protocol:
as §1, §2

Test [13] concerns the target T13, SF3B1 K700E epitope with glycine at position 8 peptide on HLA-B*40:01 (human).
T13 peptide: QEVRTISGL
The test is described as follows: killing. The method, then:
as §1, §2

Test [14] addresses T14, SF3B1 K700E epitope with valine at position 8 peptide on HLA-B*40:01 (human).
T14 peptide: QEVRTISVL
The test is described as follows: killing. The method, then:
as §1, §2

The target of test [15] is T15, SF3B1 wild-type peptide on HLA-B*40:01 (human).
T15 peptide: QKVRTISAL
The test is described as follows: killing. The protocol: as §1, §2

The target in test [16] is T16, CBFB-MYH11 type A peptide on HLA-B*40:01 (human).
T16 peptide: REEMEVHEL
The test is described as follows: killing. The protocol: as §1, §2

The target in test [17] is T17, SF3B1 K700E epitope with alanine at position 4 peptide on HLA-B*40:01 (human).
T17 peptide: QEVATISAL
The test is described as follows: killing. The protocol:
as §1, §2

Test [18] concerns the target T18, SF3B1 K700E epitope with alanine at position 7 peptide on HLA-B*40:01 (human).
T18 peptide: QEVRTIAAL
The test is described as follows: killing. The protocol: as §1, §2

B1: TCR24 (SF3B1^K700E/B*40:01-specific TCR from clone 24) (TCR, V domains shown)
Valpha: AQSVTQPDIHITVSEGASLELRCNYSYGATPYLFWYVQSPGQGLQLLLKYFSGDTLVQGIKGFEAEFKRSQSSFNLRKPSVHWSDAAEYFCAVAAKDSSYKLIFGSGTRLLVRP
Vbeta: SAVISQKPSRDICQRGTSLTIQCQVDSQVTMMFWYRQQPGQSLTLIATANQGSEATYESGFVIDKFPISRPNLTFSTLTVSNMSPEDSSIYLCSDRGQVVGETQYFGPGTRLLVL
Consider B1, for which the EC50 of peptide in test [1] is roughly 0.1 ng/mL. Moreover, the binding result in [2] is reported as “no recognition”; in [3], “no recognition”; in [4] it was “no recognition”; in test [5], “no recognition”; in test [6], “no recognition”; in test [7], “recognises”. Besides, the binding result in [8] is given as “recognises”; in test [9], “no recognition”; in test [10], “no recognition”; in test [11], “no recognition”; in test [12], “no recognition”; in [13], “recognises”. Moreover, the binding result in test [14] was “recognises”; in test [15] it was “no recognition”; in test [16] it was “no recognition”; in [17], “no recognition”; in test [18], “recognises”.

Source of the values: patent publication US20250025499A1 (published 2025).
